In one experiment the target is T1, Human ACVR2A (human, UniProt P27037 20-135, limits assumed).
T1 construct: also called activin receptor, type II A
Kind of experiment: ELISA. The method, then:
(§1) The binding of ACVR2A-specific monoclonal antibodies to human ACVR2A, mouse ACVR2A, biotinylated goat anti-human kappa light chain (positive control) and human Fc (negative control) were determined by ELISA.

Another experiment addresses Mouse ACVR2A (mouse, UniProt P27038 20-135, limits assumed). Kind of experiment: ELISA. The method, then: as §1
On the technique in general: In an ELISA, binding on a coated surface is turned into a signal by an enzyme label.

In the next experiment the target is T2, Goat anti-Human Kappa.
T2 construct: Positive control; also called biotinylated goat anti-human kappa light chain
The experiment is described as follows: ELISA; positive control. The method, then:
as §1

In experiment [1] the target is T3, biotinylated goat anti-human kappa light chain.
T3 construct: positive control of the ELISA
The experiment is described as follows: ELISA, positive control. The method, then: as §1
Also: test concentration or dose not given here.

T1 sequence (P27037 20-135 limits assumed): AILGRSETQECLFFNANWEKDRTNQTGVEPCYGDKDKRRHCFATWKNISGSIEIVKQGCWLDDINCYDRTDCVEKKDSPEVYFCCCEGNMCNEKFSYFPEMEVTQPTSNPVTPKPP
Sequence of Mouse ACVR2A (P27038 20-135 limits assumed): as the sequence (P27037 20-135 limits assumed) above, with K20R, V73I counted along it

B1: 375_B03 (antibody, V domains shown)
VH: EVQLLESGGGLVQPGGSLRLSCAASGFTFSSYSMNWVRQAPGKGLEWVAGINYNGGYTSYADSVKGRFTISRDNSKNTLYLQMNSLRAEDTAVYYCARGATWHDTHLDYWGQGTLVTVSS
VL: DIQMTQSPSSLSASVGDRVTITCRASQSILTYLNWYQQKPGKAPKLLIYAATSRASGVPSRFSGSGSGTDFTLTISSLQPEDFATYYCQQSYDSPLTFGGGTKVEIK
notes: VH/VL only
With B1, the results for the optical density with Human ACVR2A, with Mouse ACVR2A and in the experiment with Goat anti-Human Kappa were 3.68 OD, 3.7 OD and 3.24 OD, respectively.

B2: 369_F08 (antibody, V domains shown)
VH: EVQLLESGGGLVQPGGSLRLSCAASGFTFSDYGMHWVRQAPGKGLEWVSGINYNSGYTSYADSVKGRFTISRDNSKNTLYLQMNSLRAEDTAVYYCARGANWHDTALDYWGQGTLVTVSS
VL: DIQMTQSPSSLSASVGDRVTITCRASQSILSYLNWYQQKPGKAPKLLIYAASSLQSGVPSRFSGSGSGTDFTLTISSLQPEDFATYYCQQSYDLPLTFGGGTKVEIK
notes: Group III
In experiment [1], B2 yielded an optical density of 3.1 OD.

B3: 365_D10 (antibody, V domains shown)
VH: EVQLLESGGGLVQPGGSLRLSCAASGFTFSSYSMNWVRQAPGKGLEWVAGINYNGGYTGYADSVKGRFTISRDNSKNTLYLQMNSLRAEDTAVYYCARGATWHDTHLDYWGQGTLVTVSS
VL: DIQMTQSPSSLSASVGDRVTITCRASQSISTYLNWYQQKPGKAPKLLIYAATSRASGVPSRFSGSGSGTDFTLTISSLQPEDFATYYCQQSYESPLTFGGGTKVEIK
notes: VH/VL only
For B3, the optical density in the experiment with Human ACVR2A was determined as 2.39 OD; with Mouse ACVR2A it was 2.24 OD; in the experiment with Goat anti-Human Kappa it was 3.27 OD.

B4: 365_C02 (antibody, V domains shown)
VH: EVQLLESGGGLVQPGGSLRLSCAASGFTFDSYSMNWVRQAPGKGLEWVSNINYNGGYKGYADSVKGRFTISRDNSKNTLYLQMNSLRAEDTAVYYCARGATWHDTHLDYWGQGTLVTVSS
VL: DIQMTQSPSSLSASVGDRVTITCRASQSISTYLNWYQQKPGKAPKLVIYAATSRHSGVPSRFSGSGSGTDFTLTISSLQPEDFATYYCQQSYENPLTFGGGTKVEIK
notes: VH/VL only
As for B4, the values for the optical density with Human ACVR2A, with Mouse ACVR2A and in the experiment with Goat anti-Human Kappa were 2.15 OD, 2.33 OD and 3.45 OD, respectively.

B5: 365_D02 (antibody, V domains shown)
VH: EVQLLESGGGLVQPGGSLRLSCAASGFTFSSYSMHWVRQAPGKGLEWVASINYNGGYTSYADSVKGRFTISRDNSKNTLYLQMNSLRAEDTAVYYCARGATWHDTHLDYWGQGTLVTVSS
VL: DIQMTQSPSSLSASVGDRVTITCRASQSIVTYLNWYQQKPGKAPKLLIYAATSLASGVPSRFSGSGSGTDFTLTISSLQPEDFATYYCQQSYDNPLTFGGGTKVEIK
notes: VH/VL only
Take B5: the optical density in the experiment with Human ACVR2A came out at 2.54 OD; in the experiment with Mouse ACVR2A, 2.7 OD; with Goat anti-Human Kappa, 3.52 OD.

B6: 365_A12 (antibody, V domains shown)
VH: EVQLLESGGGLVQPGGSLRLSCAASGFTFSSYGMHWVRQAPGKGLEWVAGINYNGGYTSYADSVKGRFTISRDNSKNTLYLQMNSLRAEDTAVYYCAKSANWHDTHLDYWGQGTLVTVSS
VL: DIQMTQSPSSLSASVGDRVTITCRASQSILTYVNWYQQKPGKAPKLLIYAATSRHSGVPSRFSGSGSGTDFTLTISSLQPEDFATYYCQQSYENPLTFGGGTKVEIK
notes: VH/VL only
Consider B6, for which the figures for the optical density with Human ACVR2A, with Mouse ACVR2A and with Goat anti-Human Kappa were 2.67 OD, 2.87 OD and 3.67 OD, respectively.

B7: 365_A09 (antibody, V domains shown)
VH: EVQLLESGGGLVQPGGSLRLSCAASGFTFSSYGMHWVRQAPGKGLEWVASINYNGGYTSYADSVKGRFTISRDNSKNTLYLQMNSLRAEDTAVYYCARGATWHDTHLDYWGQGTLVTVSS
VL: DIQMTQSPSSLSASVGDRVTITCRASQSILSYVNWYQQKPGKAPKLLIYAATSRASGVPSRFSGSGSGTDFTLTISSLQPEDFATYYCQQSYDLPLTFGGGTKVEIK
notes: VH/VL only
As for B7, the optical density is 2.45 OD with Human ACVR2A, 2.48 OD in the experiment with Mouse ACVR2A and 3.3 OD with Goat anti-Human Kappa.

B8: 365_D07 (antibody, V domains shown)
VH: EVQLLESGGGLVQPGGSLRLSCAASGFTFSSYGMNWVRQAPGKGLEWVSSINYNSGYKSYADSVKGRFTISRDNSKNTLYLQMNSLRAEDTAVYYCARGATWHDTHLDYWGQGTLVTVSS
VL: not shown
notes: VH/VL only
B8: the optical density amounted to 1.83 OD with Human ACVR2A, 2.06 OD in the experiment with Mouse ACVR2A and 3.38 OD with Goat anti-Human Kappa.

B9: 365_B07 (antibody, V domains shown)
VH: EVQLLESGGGLVQPGGSLRLSCAASGFTFSSYGMHWVRQAPGKGLEWVASINYNSGYTSYADSVKGRFTISRDNSKNTLYLQMNSLRAEDTAVYYCARSANWHDTALDYWGQGTLVTVSS
VL: DIQMTQSPSSLSASVGDRVTITCRASQSILTYLNWYQQKPGKAPKLLIYAATSRASGVPSRFSGSGSGTDFTLTISSLQPEDFATYYCQQSYENPLTFGGGTKVEIK
notes: VH/VL only
Take B9: the figures for the optical density in the experiment with Human ACVR2A, with Mouse ACVR2A and with Goat anti-Human Kappa were 2.11 OD, 2.21 OD and 3.23 OD, respectively.

B10: 365_D11 (antibody, V domains shown)
VH: EVQLLESGGGLVQPGGSLRLSCAASGFTFDSYGMNWVRQAPGKGLEWVSNINYNSGYTSYADSVKGRFTISRDNSKNTLYLQMNSLRAEDTAVYYCARSANWHDTALDYWGQGTLVTVSS
VL: DIQMTQSPSSLSASVGDRVTITCRASQSIVSYLNWYQQKPGKAPKLVIYAATSRASGVPSRFSGSGSGTDFTLTISSLQPEDFATYYCQQSYSSPLTFGGGTKVEIK
notes: VH/VL only
On to B10, for which the values for the optical density with Human ACVR2A, with Mouse ACVR2A and with Goat anti-Human Kappa were 2.34 OD, 2.22 OD and 3.38 OD, respectively.

B11: 365_A11 (antibody, V domains shown)
VH: EVQLLESGGGLVQPGGSLRLSCAASGFTFDDYGMNWVRQAPGKGLEWVSGINYNSGYTSYADSVKGRFTISRDNSKNTLYLQMNSLRAEDTAVYYCARSANWHDTALDYWGQGTLVTVSS
VL: DIQMTQSPSSLSASVGDRVTITCRASQSILSYLNWYQQKPGKAPKLVIYAATSLASGVPSRFSGSGSGTDFTLTISSLQPEDFATYYCQQSYESPLTFGGGTKVEIK
notes: VH/VL only
As to B11, the optical density is 2.04 OD in the experiment with Human ACVR2A, 1.94 OD with Mouse ACVR2A and 3.27 OD in the experiment with Goat anti-Human Kappa.

B12: 365_C10 (antibody, V domains shown)
VH: EVQLLESGGGLVQPGGSLRLSCAASGFTFSSYGMHWVRQAPGKGLEWVASINYNGGYTSYADSVKGRFTISRDNSKNTLYLQMNSLRAEDTAVYYCARSANWHDTALDYWGQGTLVTVSS
VL: DIQMTQSPSSLSASVGDRVTITCRASQSILSYVNWYQQKPGKAPKLLIYAATSLASGVPSRFSGSGSGTDFTLTISSLQPEDFATYYCQQSYESPLTFGGGTKVEIK
notes: VH/VL only
As for B12, the optical density stood at 2.45 OD with Human ACVR2A, 2.44 OD in the experiment with Mouse ACVR2A and 3.41 OD with Goat anti-Human Kappa.

B13: 365_A03 (antibody, V domains shown)
VH: EVQLLESGGGLVQPGGSLRLSCAASGFTFSSYSMNWVRQAPGKGLEWVAGINYNSGYKGYADSVKGRFTISRDNSKNTLYLQMNSLRAEDTAVYYCARSANWHDTALDYWGQGTLVTVSS
VL: DIQMTQSPSSLSASVGDRVTITCRASQSILSYLNWYQQKPGKAPKLVIYAVTSRASGVPSRFSGSGSGTDFTLTISSLQPEDFATYYCQQSYDSPLTFGGGTKVEIK
notes: VH/VL only
In the case of B13, the optical density in the experiment with Human ACVR2A came out at 3.4 OD; in the experiment with Mouse ACVR2A, 3.24 OD; with Goat anti-Human Kappa, 3.44 OD.

B14: 365_C04 (antibody, V domains shown)
VH: EVQLLESGGGLVQPGGSLRLSCAASGFTFDSYSMNWVRQAPGKGLEWVANINYNGGYKGYADSVKGRFTISRDNSKNTLYLQMNSLRAEDTAVYYCARGATWHDTHLDYWGQGTLVTVSS
VL: DIQMTQSPSSLSASVGDRVTITCRASQSILTYLNWYQQKPGKAPKLVIYAATSLASGVPSRFSGSGSGTDFTLTISSLQPEDFATYYCQQSYDTPLTFGGGTKVEIK
notes: VH/VL only
As for B14, the optical density with Human ACVR2A turned out to be 2.26 OD; in the experiment with Mouse ACVR2A, 2.67 OD; with Goat anti-Human Kappa, 3.55 OD.

B15: 365_D09 (antibody, V domains shown)
VH: EVQLLESGGGLVQPGGSLRLSCAASGFTFSSYGMHWVRQAPGKGLEWVSGINYNSGYTSYADSVKGRFTISRDNSKNTLYLQMNSLRAEDTAVYYCARSANWHDTALDYWGQGTLVTVSS
VL: DIQMTQSPSSLSASVGDRVTITCRASQSILSYLNWYQQKPGKAPKLLIYAATSRASGVPSRFSGSGSGTDFTLTISSLQPEDFATYYCQQSDESPLTFGGGTKVEIK
notes: VH/VL only
As for B15, the optical density in the experiment with Human ACVR2A is 1.52 OD; with Mouse ACVR2A, 1.35 OD; in the experiment with Goat anti-Human Kappa, 3.38 OD.

B16: 365_A08 (antibody, V domains shown)
VH: EVQLLESGGGLVQPGGSLRLSCAASGFTFSSYSMNWVRQAPGKGLEWVASINYNGGYKSYADSVKGRFTISRDNSKNTLYLQMNSLRAEDTAVYYCARGATWHDTHLDYWGQGTLVTVSS
VL: DIQMTQSPSSLSASVGDRVTITCRASQSIITYLNWYQQKPGKAPKLVIYAATSRASGVPSRFSGSGSGTDFTLTISSLQPEDFATYYCQQSDNTPLTFGGGTKVEIK
notes: VH/VL only
Turning to B16, the optical density was 1.58 OD in the experiment with Human ACVR2A, 1.59 OD with Mouse ACVR2A and 3.2 OD with Goat anti-Human Kappa.

B17: 365_C11 (antibody, V domains shown)
VH: EVQLLESGGGLVQPGGSLRLSCAASGFTFSSYSMNWVRQAPGKGLEWVAGINYNGGYKSYADSVKGRFTISRDNSKNTLYLQMNSLRAEDTAVYYCARSANWHDTHLDYWGQGTLVTVSS
VL: DIQMTQSPSSLSASVGDRVTITCRASQSIITYLNWYQQKPGKAPKLVIYAVTSRASGVPSRFSGSGSGTDFTLTISSLQPEDFATYYCQQSYSLPLTFGGGTKVEIK
notes: VH/VL only
Regarding B17, the optical density with Human ACVR2A worked out at 2.66 OD; with Mouse ACVR2A, 2.78 OD; with Goat anti-Human Kappa, 3.67 OD.

B18: 365_B11 (antibody, V domains shown)
VH: EVQLLESGGGLVQPGGSLRLSCAASGFTFSSYGMHWVRQAPGKGLEWVAGINYNGGYTSYADSVKGRFTISRDNSKNTLYLQMNSLRAEDTAVYYCARSANWHDTALDYWGQGTLVTVSS
VL: DIQMTQSPSSLSASVGDRVTITCRASQSIISYLNWYQQKPGKAPKLVIYATTSRHSGVPSRFSGSGSGTDFTLTISSLQPEDFATYYCQQSYDSPLTFGGGTKVEIK
notes: VH/VL only
For the molecule B18, the optical density was found to be 2.84 OD in the experiment with Human ACVR2A, 2.75 OD with Mouse ACVR2A and 3.58 OD with Goat anti-Human Kappa.
